Key:
[1] = target: FcγRIIB on transfected CHO cells (UniProt P31994); test: flow cytometry on FcγRIIB-transfected CHO cells, detection with anti-human kappa antibody, GFI against nM
[2] = target: FcγRIIIA on transfected CHO cells (UniProt P08637); test: flow cytometry on FcγRIIIA-transfected CHO cells, detection with anti-human kappa antibody, GFI against nM
Chain of FcγRIIIA on transfected CHO cells (P08637 17-254 limits assumed): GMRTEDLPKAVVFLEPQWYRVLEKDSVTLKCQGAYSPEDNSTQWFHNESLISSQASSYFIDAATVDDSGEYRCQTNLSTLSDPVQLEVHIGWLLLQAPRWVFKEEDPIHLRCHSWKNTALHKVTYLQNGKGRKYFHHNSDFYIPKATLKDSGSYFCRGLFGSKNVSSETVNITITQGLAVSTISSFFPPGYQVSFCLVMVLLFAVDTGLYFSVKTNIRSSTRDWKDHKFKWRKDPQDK

Chain of FcγRIIB on transfected CHO cells (P31994 43-310 limits assumed): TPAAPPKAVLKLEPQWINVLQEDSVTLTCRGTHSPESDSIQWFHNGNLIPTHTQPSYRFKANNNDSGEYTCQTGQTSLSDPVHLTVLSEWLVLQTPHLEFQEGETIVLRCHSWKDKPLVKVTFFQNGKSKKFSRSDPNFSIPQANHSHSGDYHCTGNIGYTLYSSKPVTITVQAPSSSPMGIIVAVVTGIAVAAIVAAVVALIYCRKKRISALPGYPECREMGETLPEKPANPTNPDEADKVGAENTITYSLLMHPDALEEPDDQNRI

L328F (antibody)
EC50 (read off the curve) [1]: 2 nM

N297A (antibody)
EC50 (read off the curve) [2]: 4 nM

S267E (antibody)
EC50 (read off the curve) [2]: 1 nM
EC50 (read off the curve) [1]: 0.7 nM

SELF (antibody)
EC50 (read off the curve) [1]: 0.3 nM

From patent US20200308290A1
